Data published in patent publication US12296006B2, “Anti-LY6H antibodies and antibody drug conjugates” (Bluefin BioMedicine, Inc., priority 2017, dated 2025).

How the values were obtained:
[1] = system: H446; experiment: Anti-Ly6H antibodies binding to endogenous cell lines by flow cytometry: H446; parameters: species or system human; key: (−): No binding; (+): Weak binding; (++): Moderate binding; (+++): Strong binding; (++++): Very strong binding; conditions: primary antibodies 1 ug/ml, live cells on ice 30 minutes
Experimental: (§1) Staining for flow cytometry was performed in 1× cold PBS with 0.5% BSA. Primary antibodies (1 ug/ml) were incubated with live cells on ice for 30 minutes, after a brief wash, cells were incubated with Alexa Fluro® 488-conjugated anti-human IgG secondary antibody @1:1000 (709-546-149, Jackson ImmunoResearch). Acquisition of the data was performed on a MACSQuant© Flow Cytometers (Miltenyi Biotec) and analyzed with FlowJo software.
(§2) Fully human antibodies against LY6H were generated by hybridoma procedures. Briefly, H2L2 mice were immunized with either recombinant human Ly6H-ECD or BaF3 cells over-expressing LY6H and boosted with rabbit splenocytes expressing full length human LY6H or with ECD of LY6H recombinant protein. Splenocytes were fused with the mouse myeloma cell line X63-Ag8.653. Clones from H2L2 mice were identified by immunofluorescence (IF) based high content screening (HCS) on 293 cells overexpressing hLY6H, ratLy6H, and parental 293 cells not expressing LY6H, as well as endogenous small cell lung cancer (SCLC) cell line, H446. […] 270 hits were cryopreserved and stored in liquid nitrogen. Approximately 100 clones were selected for molecular cloning. Based on unique CDR3 sequences from the heavy chain variable domain, 10 antibodies from 8 families were chosen and confirmed by flow cytometry (MACSQuant® miltenybiotec.com) on the following cell lines. The small-cell-lung cancer cells (SCLC) included H446, DMS79, and H526 cells. The T-cell acute lymphoblastic leukemia (T-ALL) cancer cells included MOLT3 and KE-37 cells.

[2] = system: H69; experiment: Anti-Ly6H antibodies binding to endogenous cell lines by flow cytometry: H69; parameters: species or system human; key: (−): No binding; (+): Weak binding; (++): Moderate binding; (+++): Strong binding; (++++): Very strong binding; conditions: primary antibodies 1 ug/ml, live cells on ice 30 minutes
Experimental: as §1
as §2, with “The small-cell-lung cancer cells (SCLC) included H446, DMS79, and H526 cells. The T-cell acute lymphoblastic leukemia (T-ALL) cancer cells included MOLT3 and KE-37 cells.” left out

[3] = system: DMS79; experiment: Anti-Ly6H antibodies binding to endogenous cell lines by flow cytometry: DMS79; parameters: species or system human; key: (−): No binding; (+): Weak binding; (++): Moderate binding; (+++): Strong binding; (++++): Very strong binding; conditions: primary antibodies 1 ug/ml, live cells on ice 30 minutes
Experimental: as §1, §2

[4] = system: MOLT3; experiment: Anti-Ly6H antibodies binding to endogenous cell lines by flow cytometry: MOLT3; parameters: species or system human; key: (−): No binding; (+): Weak binding; (++): Moderate binding; (+++): Strong binding; (++++): Very strong binding; conditions: primary antibodies 1 ug/ml, live cells on ice 30 minutes
Experimental: as §1, §2

[5] = system: KE-37; experiment: Anti-Ly6H antibodies binding to endogenous cell lines by flow cytometry: KE-37; parameters: species or system human; key: (−): No binding; (+): Weak binding; (++): Moderate binding; (+++): Strong binding; (++++): Very strong binding; conditions: primary antibodies 1 ug/ml, live cells on ice 30 minutes
Experimental: as §1, §2

[6] = system: EOL1; experiment: Anti-Ly6H antibodies binding to endogenous cell lines by flow cytometry: EOL1; parameters: species or system human; key: (−): No binding; (+): Weak binding; (++): Moderate binding; (+++): Strong binding; (++++): Very strong binding; conditions: primary antibodies 1 ug/ml, live cells on ice 30 minutes
Experimental: as §1
as §2, with “The small-cell-lung cancer cells (SCLC) included H446, DMS79, and H526 cells. The T-cell acute lymphoblastic leukemia (T-ALL) cancer cells included MOLT3 and KE-37 cells.” left out

[7] = target: H446, DMS79, H526, and MOLT3; experiment: Measurement of antibody EC50 by flow cytometry; type: binding, human; conditions: 100 nM to 0.1 nM antibody
Experimental: The assay uses 3-5 fold dilutions (from 100 nM to 0.1 nM) of antibody of a stock antibody concentration (100 nM) in binding buffer. Serial diluted antibodies were incubated with live cells on ice for 30 minutes, after a brief wash, cells were incubated with Alexa Fluro® 488-conjugated anti-human IgG secondary antibody @1:100, or 15 ug/ml (709-546-149, Jackson ImmunoResearch). Acquisition of the MFI (Median Fluorescent Intensity) was performed on a MACSQuant® Flow Cytometers (Miltenyi Biotec). EC50 was calculated using Dose-response EC50 shift by global fitting from GraphPad Prism.
EC50 or the concentration of antibody that gives half-maximal binding is determined by direct and saturable binding of an antibody dilution series to both target positive and negative cell lines. An estimate of affinity is interpreted from one-half the concentration at which antibody binding first achieves saturation. EC50 was measured in the following cell lines H446, DMS79, H526, and MOLT3 (FIG. 4). Though EC50 may not provide an accurate measure of affinity, it allows for ranking ordering of antibodies. 12G7, 11D9, 10B10, and 6D11 were ranked top, followed by 34H6, 1F8, and 2B11.

[8] = system: H446 cells; experiment: Internalization assay in H446 cells (LAMP1 co-staining); type: cell-based, human; conditions: live H446 cells incubated with antibody at 37° C., fixed, permeablized, LAMP1 co-stain
Experimental: Live H446 cells were incubated with 12G7 for 2 hours, cells were then fixed, permeablized, and co-stained with LAMP1 antibody.
Live H446 cells were incubated with 12G7 antibody for 30 minutes at 37° C. After cytospin, cells were fixed with 4% PFA and permeablized with 100% methanol, and stained with LAMP1 antibody (#9091, Cell Signaling Technology, Inc.).

[9] = system: LY6H positive SCLC and T cell acute lymphoblastic leukemia (T-ALL) cell lines; experiment: Flow cytometry binding of 12G7 to SCLC and T-ALL cell lines (FIG. 2); parameters: species or system human
Experimental: Dotted lines represent LY6H antibody.
as §1
as §2, with “Based on unique CDR3 sequences from the heavy chain variable domain, 10 antibodies from 8 families were chosen and confirmed by flow cytometry (MACSQuant® miltenybiotec.com) on the following cell lines. The small-cell-lung cancer cells (SCLC) included H446, DMS79, and H526 cells. The T-cell acute lymphoblastic leukemia (T-ALL) cancer cells included MOLT3 and KE-37 cells.” left out

B1: 12G7: human anti-LY6H antibody, VH SEQ ID NO: 22, VL SEQ ID NO: 26 (antibody, V domains shown)
VH: QVQLQQWGAGLLKPSETLSLTCAVYGGSFSGYYWSWIRQPPGKGLEWIGEINHSGSTYYNPSLKSRVTMSVDTSKNQFSLKLSSVTAADTAVYYCAKRWELGAFDIWGQGTMVTVSS
VL: DIQMTQSPSSLSASVGDRVTITCRASQGISNYLAWYQQKPGKVPKLLIYAASTLQSGVPSRFSGSGSGTDFTLTISSLQPEDVATYYCQKYNSAPRTFGQGTKLEIK
binding by flow cytometry, H446 [1]: (++++)
binding by flow cytometry, H69 [2]: (−)
binding by flow cytometry, DMS79 [3]: (+++)
binding by flow cytometry, MOLT3 [4]: (+++)
binding by flow cytometry, KE-37 [5]: (++++)
binding by flow cytometry, EOL1 [6]: (−)
rank ordering of antibodies by EC50 (half-maximal binding) [7]: ranked top
internalization / co-localization with LAMP1 [8]: internalization
binding to LY6H positive SCLC and T-ALL cell lines [9]: binds

B2: 10B10: human anti-LY6H antibody, VH SEQ ID NO: 60, VL SEQ ID NO: 26 (antibody, V domains shown)
VH: QVQLQQWGAGLLKPSETLSLTCAVYGGSFSGYYWHWIRQPPGKGLEWIGEINHSESTKYNPSLKSRVTISVDTSKNQFSLKLSSVTGADTAVYYCARGQHIVVVTDSLGDYWGQGTLVTVSS
VL: DIQMTQSPSSLSASVGDRVTITCRASQGISNYLAWYQQKPGKVPKLLIYAASTLQSGVPSRFSGSGSGTDFTLTISSLQPEDVATYYCQKYNSAPRTFGQGTKLEIK
binding by flow cytometry, H446 [1]: (++++)
binding by flow cytometry, DMS79 [3]: (+++)
binding by flow cytometry, MOLT3 [4]: (+++)
binding by flow cytometry, KE-37 [5]: (++++)
rank ordering of antibodies by EC50 (half-maximal binding) [7]: ranked top

B3: 6D11: human anti-LY6H antibody, VH SEQ ID NO: 1, VL SEQ ID NO: 5 (antibody, V domains shown)
VH: QVQLQQWGAGLFKPSETLSLTCAVYGGSFSGSLWSWIRQPPGKGLEWIGEINHSGSTNYTPSLKSRVTISVDTSKNQFSLKLTSVTAADTAVYYCARGRHIVVVTAIHSPFDYWGQGTLVTVSS
VL: DIQMTQSPSSLSASVGDRVTITCRASQGISNYLAWYQQKPGKVPKLLIFAASTLQSGVPSRFSGSGSGTDFTLTISSLQPEDVATYYCQKYNSAPRTFGQGTKLEIK
binding by flow cytometry, H446 [1]: (++++)
binding by flow cytometry, DMS79 [3]: (+++)
binding by flow cytometry, MOLT3 [4]: (+++)
binding by flow cytometry, KE-37 [5]: (++++)
rank ordering of antibodies by EC50 (half-maximal binding) [7]: ranked top
